The results in this text go back to the supplement of paper PMC5998384.

Series [1] has as its system HeLa Kyoto. Kind of series: solubility change mitosis vs G1/S (difference of NP-40 vs SDS log2 ratios) (log2 ratio difference); higher = more soluble in mitosis.
Series [2] deals with HeLa Kyoto. Kind of series: melting temperature (median over replicates), in situ; higher = more thermally stable.
Series [3] concerns HeLa Kyoto. Kind of series: solubility in G1/S (NP-40 vs SDS abundance) (log2 ratio); higher = more soluble. The conditions noted are these: cell cycle stage: G1/S.
For series [4], the system named is HeLa Kyoto. The series is described as follows: thermal stability score vs G1/S (z-score of summed log2 fold changes over temperatures); higher = more thermally stable than in G1/S.
The mark [5] stands for this setting: cell cycle stage: early G1 (4.5 h after nocodazole release).
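For melting temperature (median over replicates), in situ in this document: HeLa Kyoto cells synchronized by double thymidine or nocodazole block, proteins quantified by TMT10plex mass spectrometry, three independent biological replicates.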
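For solubility change mitosis vs G1/S (difference of NP-40 vs SDS log2 ratios) in this document: synchronized HeLa Kyoto cells (double thymidine block for G1/S, nocodazole release for mitosis), protein amounts in NP-40 versus SDS lysates quantified by mass spectrometry, three biological replicates.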
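For solubility in G1/S (NP-40 vs SDS abundance) in this document: HeLa Kyoto cells arrested at G1/S by double thymidine block, proteins quantified by TMT10plex mass spectrometry in mild NP-40 versus SDS extracts, three biological replicates.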
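For thermal stability score vs G1/S (z-score of summed log2 fold changes over temperatures) in this document: synchronized HeLa Kyoto cells, proteins quantified by TMT10plex mass spectrometry, three biological replicates, mitosis taken 0.5 h after nocodazole release, G1/S directly after double thymidine block.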

For “MKLNVDGLLVYFPYDYIYPEQFSYMRELKRTLDAKGHGVLEMPSGTGKTVSLLALIMAYQRAYPLEVTKLIYCSRTVPEIEKVIEELRKLLNFYEKQEGEKLPFLGLALSSRKNLCIHPEVTPLRFGKDVDGKCHSLTASYVRAQYQHDTSLPHCRFYEEFDAHGREVPLPAGIYNLDDLKALGRRQGWCPYFLARYSILHANVVVYSYHYLLDPKIADLVSKELARKAVVVFDEAHNIDNVCIDSMSVNLTRRTLDRCQGNLETLQKTVLRIKETDEQRLRDEYRRLVEGLREASAARETDAHLANPVLPDEVLQEAVPGSIRTAEHFLGFLRRLLEYVKWRLRVQHVVQESPPAFLSGLAQRVCIQRKPLRFCAERLRSLLHTLEITDLADFSPLTLLANFATLVSTYAKGFTIIIEPFDDRTPTIANPILHFSCMDASLAIKPVFERFQSVIITSGTLSPLDIYPKILDFHPVTMATFTMTLARVCLCPMIIGRGNDQVAISSKFETREDIAVIRNYGNLLLEMSAVVPDGIVAFFTSYQYMESTVASWYEQGILENIQRNKLLFIETQDGAETSVALEKYQEACENGRGAILLSVARGKVSEGIDFVHHYGRAVIMFGVPYVYTQSRILKARLEYLRDQFQIRENDFLTFDAMRHAAQCVGRAIRGKTDYGLMVFADKRFARGDKRGKLPRWIQEHLTDANLNLTVDEGVQVAKYFLRQMAQPFHREDQLGLSLLSLEQLESEETLKRIEQIAQQL [ERCC2]”, the “solubility change mitosis (log2)” value in series [1] was -0.0825. The melting temperature was 48.9 °C in series [2] (cell cycle stage: G1/S) and 49.1 °C in series [2] (cell cycle stage: mitosis). The “solubility in G1/S (log2)” value in series [3] was -0.193. Further, the thermal stability score in series [4] (setting [5]) worked out at 1; in series [4] (cell cycle stage: mitosis) it was 2.34.
As to “MKLYSLSVLYKGEAKVVLLKAAYDVSSFSFFQRSSVQEFMTFTSQLIVERSSKGTRASVKEQDYLCHVYVRNDSLAGVVIADNEYPSRVAFTLLEKVLDEFSKQVDRIDWPVGSPATIHYPALDGHLSRYQNPREADPMTKVQAELDETKIILHNTMESLLERGEKLDDLVSKSEVLGTQSKAFYKTARKQNSCCAIM [YKT6]”, the “solubility change mitosis (log2)” value in series [1] is -0.0935. Further, the melting temperature in series [2] (cell cycle stage: G1/S) came out at 54.5 °C; in series [2] (cell cycle stage: mitosis), 54.6 °C. For the same sequence, the “solubility in G1/S (log2)” value in series [3] is -0.0827. Further, the figures for the thermal stability score in series [4] (setting [5]) and in series [4] (cell cycle stage: mitosis) were 0.334 and -0.9, respectively.
Regarding “MKMAAPTANKAASLGCNNKPAFPELDFRSGARVEELNKLIQEFTKHDQREYDDQRALEIHTAKDFIFSMLGMVQKLDQKLPVANEYLLLSGGVREGVVDLDLDELNVYARGTDYDMDFTLLVPALKLHDRNQPVTLDMRHSALCHSWLSLRLFDEGTISKWKDCCTIVDHINGATNYFFSPTKVADWFYDSISIVLSEIQKKPQRGMPKVEKVEKNGTIISIILGVGSSRMLYDIVPVVSFKGWPAVAQSWLMENHFWDGKITEEEVISGFYLVPACSYKGKKDNEWRLSFARSEVQLKKCISSSLMQAYQACKAIIIKLLSRPKAISPYHLRSMMLWACDRLPANYLAQEDYAAHFLLGLIDDLQHCLVNKMCPNYFIPQCNMLEHLSEETVMLHARKLSSVRSDPAEHLRTAIEHVKAANRLTLELQRRGSTTSIPSPQSDGGDPNQPDDRLAKKLQQLVTENPGKSISVFINPDDVTRPHFRIDDKFF [MB21D2]”, the “solubility change mitosis (log2)” value in series [1] was -0.0032. The melting temperature in series [2] (cell cycle stage: G1/S) is 56.3 °C; in series [2] (cell cycle stage: mitosis), 56.5 °C. Moreover, in series [3], the “solubility in G1/S (log2)” value is 0.0815. Further, the values for the thermal stability score in series [4] (setting [5]) and in series [4] (cell cycle stage: mitosis) were 1.1 and -0.608, respectively.
For “MKMADAKQKRNEQLKRWIGSETDLEPPVVKRQKTKVKFDDGAVFLAACSSGDTDEVLKLLHRGADINYANVDGLTALHQACIDDNVDMVKFLVENGANINQPDNEGWIPLHAAASCGYLDIAEFLIGQGAHVGAVNSEGDTPLDIAEEEAMEELLQNEVNRQGVDIEAARKEEERIMLRDARQWLNSGHINDVRHAKSGGTALHVAAAKGYTEVLKLLIQAGYDVNIKDYDGWTPLHAAAHWGKEEACRILVDNLCDMEMVNKVGQTAFDVADEDILGYLEELQKKQNLLHSEKRDKKSPLIESTANMDNNQSQKTFKNKETLIIEPEKNASRIESLEQEKVDEEEEGKKDESSCSSEEDEEDDSESEAETDKTKPLASVTNANTSSTQAAPVAVTTPTVSSGQATPTSPIKKFPTTATKISPKEEERKDESPATWRLGLRKTGSYGALAEITASKEGQKEKDTAGVTRSASSPRLSSSLDNKEKEKDSKGTRLAYVAPTIPRRLASTSDIEEKENRDSSSLRTSSSYTRRKWEDDLKKNSSVNEGSTYHKSCSFGRRQDDLISSSVPSTTSTPTVTSAAGLQKSLLSSTSTTTKITTGSSSAGTQSSTSNRLWAEDSTEKEKDSVPTAVTIPVAPTVVNAAASTTTLTTTTAGTVSSTTEVRERRRSYLTPVRDEESESQRKARSRQARQSRRSTQGVTLTDLQEAEKTIGRSRSTRTREQENEEKEKEEKEKQDKEKQEEKKESETSREDEYKQKYSRTYDETYQRYRPVSTSSSTTPSSSLSTMSSSLYASSQLNRPNSLVGITSAYSRGITKENEREGEKREEEKEGEDKSQPKSIRERRRPREKRRSTGVSFWTQDSDENEQEQQSDTEEGSNKKETQTDSISRYETSSTSAGDRYDSLLGRSGSYSYLEERKPYSSRLEKDDSTDFKKLYEQILAENEKLKAQLHDTNMELTDLKLQLEKATQRQERFADRSLLEMEKRERRALERRISEMEEELKMLPDLKADNQRLKDENGALIRVISKLSK [PPP1R12A]”, the “solubility change mitosis (log2)” value in series [1] was 0.0601. Moreover, the melting temperature amounted to 50.4 °C in series [2] (cell cycle stage: G1/S) and 50.2 °C in series [2] (cell cycle stage: mitosis). The “solubility in G1/S (log2)” value in series [3] was -0.42. Further, the figures for the thermal stability score in series [4] (setting [5]) and in series [4] (cell cycle stage: mitosis) were -1.62 and -0.382, respectively.
